Assays:
Assay in all cases: Flag immunoprecipitation of DUBs from 293T cells cotransfected with ID2, MG-132 treated (FIG. 2B)
[1] = molecular target: SENP3-Flag (human SENP3 with C-terminal Flag epitope) (human, UniProt Q9H4L4 1-574, limits assumed)
Description: (§1) FIG. 2. […] (A) Western blot (WB) analysis of 293T transfected with Flag-tagged deubiquitinases (DUBs) or an empty vector (−). Where indicated, cells were treated with […] MG-132 for 4 hr. (B) Flag-tagged DUBs were immunoprecipitated (IP) from 293T cells cotransfected with ID2 and treated with […] MG-132 for 6 hr.

[2] = molecular target: T1, USP37-Flag (human USP37 with C-terminal Flag epitope) (human, UniProt Q86T82 1-979, limits assumed)
T1 sequence (looked up): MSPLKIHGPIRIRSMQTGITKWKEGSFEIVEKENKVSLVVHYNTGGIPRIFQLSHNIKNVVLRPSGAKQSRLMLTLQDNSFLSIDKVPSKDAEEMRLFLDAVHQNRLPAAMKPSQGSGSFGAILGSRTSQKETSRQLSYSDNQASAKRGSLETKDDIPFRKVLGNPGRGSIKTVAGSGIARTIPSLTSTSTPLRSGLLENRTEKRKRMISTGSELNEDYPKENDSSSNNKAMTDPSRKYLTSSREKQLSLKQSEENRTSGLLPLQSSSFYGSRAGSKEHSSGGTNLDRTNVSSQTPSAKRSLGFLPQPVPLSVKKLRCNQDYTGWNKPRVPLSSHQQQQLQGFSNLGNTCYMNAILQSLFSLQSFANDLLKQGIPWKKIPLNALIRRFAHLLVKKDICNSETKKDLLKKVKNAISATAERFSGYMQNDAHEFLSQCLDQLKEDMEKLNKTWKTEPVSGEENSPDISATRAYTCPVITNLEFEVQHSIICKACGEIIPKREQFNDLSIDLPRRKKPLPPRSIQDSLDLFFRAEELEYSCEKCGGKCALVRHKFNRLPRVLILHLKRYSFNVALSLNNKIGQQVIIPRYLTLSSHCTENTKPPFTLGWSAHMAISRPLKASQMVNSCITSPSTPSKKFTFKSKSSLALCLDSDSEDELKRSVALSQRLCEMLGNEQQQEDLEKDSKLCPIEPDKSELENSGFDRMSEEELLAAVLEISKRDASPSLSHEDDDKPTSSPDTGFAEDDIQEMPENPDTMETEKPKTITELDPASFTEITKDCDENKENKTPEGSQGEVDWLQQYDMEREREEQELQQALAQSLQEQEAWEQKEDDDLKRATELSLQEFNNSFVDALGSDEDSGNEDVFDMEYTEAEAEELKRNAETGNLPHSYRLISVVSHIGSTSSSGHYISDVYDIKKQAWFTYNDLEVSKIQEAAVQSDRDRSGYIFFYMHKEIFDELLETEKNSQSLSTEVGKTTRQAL
Description: as §1

[3] = molecular target: T2, USP36-Flag (human USP36 with C-terminal Flag epitope) (human, UniProt Q9P275 1-1123, limits assumed)
T2 sequence (looked up): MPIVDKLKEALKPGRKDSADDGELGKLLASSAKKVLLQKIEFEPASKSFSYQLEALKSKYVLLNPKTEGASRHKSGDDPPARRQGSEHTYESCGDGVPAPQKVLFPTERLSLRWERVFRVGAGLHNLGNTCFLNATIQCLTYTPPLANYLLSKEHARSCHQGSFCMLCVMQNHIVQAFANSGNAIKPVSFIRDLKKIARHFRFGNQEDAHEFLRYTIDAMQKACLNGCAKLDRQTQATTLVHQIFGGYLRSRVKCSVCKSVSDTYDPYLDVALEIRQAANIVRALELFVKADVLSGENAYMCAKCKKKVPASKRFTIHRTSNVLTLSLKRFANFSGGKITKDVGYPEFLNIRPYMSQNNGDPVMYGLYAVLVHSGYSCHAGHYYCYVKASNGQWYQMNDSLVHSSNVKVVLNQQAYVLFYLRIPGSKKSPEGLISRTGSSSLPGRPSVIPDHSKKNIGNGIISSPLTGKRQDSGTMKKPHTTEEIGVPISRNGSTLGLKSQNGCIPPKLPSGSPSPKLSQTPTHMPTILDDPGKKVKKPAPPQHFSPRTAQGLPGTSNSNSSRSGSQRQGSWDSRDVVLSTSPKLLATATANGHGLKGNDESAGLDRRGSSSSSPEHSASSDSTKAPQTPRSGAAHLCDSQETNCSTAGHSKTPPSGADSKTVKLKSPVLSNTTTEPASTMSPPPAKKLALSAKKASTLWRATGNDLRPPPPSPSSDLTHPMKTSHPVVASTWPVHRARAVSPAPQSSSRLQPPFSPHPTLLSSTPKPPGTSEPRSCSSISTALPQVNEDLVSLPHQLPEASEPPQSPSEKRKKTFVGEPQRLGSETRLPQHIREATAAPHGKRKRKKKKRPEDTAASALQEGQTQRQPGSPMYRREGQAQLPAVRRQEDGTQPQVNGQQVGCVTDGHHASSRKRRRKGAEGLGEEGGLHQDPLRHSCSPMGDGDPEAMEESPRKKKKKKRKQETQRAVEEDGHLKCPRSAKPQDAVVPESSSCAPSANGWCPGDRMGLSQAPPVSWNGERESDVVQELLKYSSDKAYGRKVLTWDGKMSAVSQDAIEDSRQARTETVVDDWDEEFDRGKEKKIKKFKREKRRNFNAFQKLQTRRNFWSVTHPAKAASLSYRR
Description: as §1

Measured: binding result

Sequence of SENP3-Flag (human SENP3 with C-terminal Flag epitope) (Q9H4L4 whole entry): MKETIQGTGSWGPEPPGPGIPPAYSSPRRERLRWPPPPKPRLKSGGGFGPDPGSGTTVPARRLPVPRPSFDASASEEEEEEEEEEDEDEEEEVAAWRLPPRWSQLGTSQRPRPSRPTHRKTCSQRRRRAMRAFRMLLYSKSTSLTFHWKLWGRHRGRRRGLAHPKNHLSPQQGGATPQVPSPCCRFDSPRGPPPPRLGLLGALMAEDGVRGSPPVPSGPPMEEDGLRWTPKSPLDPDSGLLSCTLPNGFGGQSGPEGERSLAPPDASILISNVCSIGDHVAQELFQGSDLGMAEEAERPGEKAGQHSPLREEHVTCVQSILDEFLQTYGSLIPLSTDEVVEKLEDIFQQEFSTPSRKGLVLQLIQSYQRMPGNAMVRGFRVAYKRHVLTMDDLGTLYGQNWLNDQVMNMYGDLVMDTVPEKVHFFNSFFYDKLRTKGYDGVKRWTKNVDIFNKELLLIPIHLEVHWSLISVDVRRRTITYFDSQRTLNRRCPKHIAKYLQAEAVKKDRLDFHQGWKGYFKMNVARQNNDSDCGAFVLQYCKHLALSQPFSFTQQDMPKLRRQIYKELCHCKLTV

B1: ID2 (co-transfected / co-expressed in 293T cells) (other)
chain: MKAFSPVRSVRKNSLSDHSLGISRSKTPVDDPMSLLYNMNDCYSKLKELVPSIPQNKKVSKMEILQHVIDYILDLQIALDSHPTIVSLHHQRPGQNQASRTPLTTLNTDISILSLQASEFPSELMSNDSKALCG
notes: ID2 was amplified from Jurkat-derived cDNA; The methods describe only a C-terminal Flag version in pRK2001
no binding: [1] | [2] | [3]

Source: US20140199327A1, “METHODS OF PROMOTING DIFFERENTIATION” (Genentech, Inc., priority 2011, published 2014)
